What was measured:
Assay in all cases: Continuous fluorescence-based PFTase enzyme assay, prenylation of N-dansyl-GCVIA (2)
Assay type in all cases: biochemical, Yeast
PFTase = target: T1, PFTase (Saccharomyces cerevisiae, UniProt P22007+P29703)
T1 sequence (P22007 1-431): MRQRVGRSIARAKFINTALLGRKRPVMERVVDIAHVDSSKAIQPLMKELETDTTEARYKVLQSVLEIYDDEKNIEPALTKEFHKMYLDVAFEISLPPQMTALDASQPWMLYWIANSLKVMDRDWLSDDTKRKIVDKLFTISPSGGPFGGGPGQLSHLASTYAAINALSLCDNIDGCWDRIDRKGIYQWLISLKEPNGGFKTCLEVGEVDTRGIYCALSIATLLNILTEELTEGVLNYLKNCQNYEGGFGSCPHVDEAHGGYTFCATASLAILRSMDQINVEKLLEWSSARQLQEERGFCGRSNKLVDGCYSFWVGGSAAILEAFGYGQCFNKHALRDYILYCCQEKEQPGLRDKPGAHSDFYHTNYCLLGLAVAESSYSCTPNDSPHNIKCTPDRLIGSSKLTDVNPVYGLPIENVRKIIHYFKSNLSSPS
T1 sequence (P29703 1-316): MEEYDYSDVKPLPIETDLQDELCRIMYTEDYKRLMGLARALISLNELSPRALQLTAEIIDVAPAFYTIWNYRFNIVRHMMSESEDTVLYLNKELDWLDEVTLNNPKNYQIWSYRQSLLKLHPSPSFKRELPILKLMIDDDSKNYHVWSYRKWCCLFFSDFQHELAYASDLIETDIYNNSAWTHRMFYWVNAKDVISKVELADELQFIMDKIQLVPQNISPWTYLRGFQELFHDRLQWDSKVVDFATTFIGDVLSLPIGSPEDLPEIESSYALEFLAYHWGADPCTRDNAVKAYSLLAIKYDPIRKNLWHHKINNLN
Procedure: (§1) Next, a kinetic analysis of that reaction was performed using varying concentrations of 1 and N-dansyl-GCVIA (SEQ ID NO: 2) (2) in the presence of PFTase showing that the enzymatic process obeyed saturation kinetics. Steady-state kinetic parameters for the prenylation reaction using the bifunctional aldehyde-alkyne analogue are shown in FIG. 4. […] Nevertheless, despite this lower activity with 1, using elevated levels of PFTase (200 nM), it is relatively easy to drive these enzymatic reactions to completion in 2 hours.
Enzymatic reaction mixtures contained Tris.HCl (50 mM, pH 7.5), MgCl2 (10 mM), ZnCl2 (10 μM), DTT (5.0 mM), 2.4 μN-dansyl-GCVIA (SEQ ID NO: 2) (2), 0.040% (w/v) n-dodecyl-β-D-maltoside PFTase (80 nM), and varying concentrations of 1 (0-50 μM), in a final volume of 250 μL. The reaction mixtures were equilibrated at 30 ° C. for 1 min, initiated by the addition of PFTase, and monitored for an increase in fluorescence (λex=340 nm, λem=505 nm) for approximately 20 min. The initial rates of formation of products were obtained as slopes in IU/min using least squares analysis. Corrections were applied to all the rate calculations based on the difference between the fluorescence intensity of the prenylated product and the starting peptide. Assuming 100% conversion, the difference corresponds only to the fluorescence of the total amount of the product. […]

[1] = substrate: C#Cc1cc(C=O)cc(OC/C(C)=C/CC/C(C)=C/COP(=O)(O)OP(=O)(O)O)c1; details: other: single peptide concentration 2.4 μM; pH 7.5; 30.0 °C
Procedure: as §1
(§2) Enzymatic reaction mixtures contained Tris.HCl (50 mM, pH 7.5), MgCl2 (10 mM), ZnCl2 (10 μM), DTT (5.0 mM), 2.4 μN-dansyl-GCVIA (SEQ ID NO: 2) (2), 0.040% (w/v) n-dodecyl-β-D-maltoside PFTase (80 nM), and varying concentrations of 1 (0-50 μM), in a final volume of 250 μL. The reaction mixtures were equilibrated at 30 ° C. for 1 min, initiated by the addition of PFTase, and monitored for an increase in fluorescence (λex=340 nm, λem=505 nm) for approximately 20 min. The initial rates of formation of products were obtained as slopes in IU/min using least squares analysis. Corrections were applied to all the rate calculations based on the difference between the fluorescence intensity of the prenylated product and the starting peptide. Assuming 100% conversion, the difference corresponds only to the fluorescence of the total amount of the product. The slope was then divided by the fluorescence difference followed by multiplying by the total concentration of peptide (2.4 μM) which then gives the rate of formation of product in μM/s. It should be noted that the KM values reported here are actually apparent KM values, since the measurements were performed in only a single peptide concentration. The data were fit to a Michaelis-Menten model
(§3) [formula] using a nonlinear regression program, to determine kcat and KM (FIG. 4).

[2] = substrate: CC(C)=CCC/C(C)=C/CC/C(C)=C/CO[P@@](=O)(O)OP(=O)(O)O; details: other: single peptide concentration 2.4 μM; pH 7.5; 30.0 °C
Procedure: as §1, §2, §3

| kcat lower than the kcat for FPP (PFTase; compared with FPP) | substrate for the enzyme (PFTase; model peptide N-dansyl-GCVIA (2)) | Molecule | Km [1] | kcat [1] | Km [2] |
| --- | --- | --- | --- | --- | --- |
| 42 fold | alternative substrate | C#Cc1cc(C=O)cc(OC/C(C)=C/CC/C(C)=C/COP(=O)(O)OP(=O)(O)O)c1 [Compound 1, (2E,6E)-8-(3-ethynyl-5-formylphenoxy)-3,7-dimethylocta-2,6-dien-1-yl diphosphate] | – | – | – |
| – | – | PFTase (Saccharomyces cerevisiae S288C) (protein, made in house) chain 1: MRQRVGRSIARAKFINTALLGRKRPVMERVVDIAHVDSSKAIQPLMKELETDTTEARYKVLQSVLEIYDDEKNIEPALTKEFHKMYLDVAFEISLPPQMTALDASQPWMLYWIANSLKVMDRDWLSDDTKRKIVDKLFTISPSGGPFGGGPGQLSHLASTYAAINALSLCDNIDGCWDRIDRKGIYQWLISLKEPNGGFKTCLEVGEVDTRGIYCALSIATLLNILTEELTEGVLNYLKNCQNYEGGFGSCPHVDEAHGGYTFCATASLAILRSMDQINVEKLLEWSSARQLQEERGFCGRSNKLVDGCYSFWVGGSAAILEAFGYGQCFNKHALRDYILYCCQEKEQPGLRDKPGAHSDFYHTNYCLLGLAVAESSYSCTPNDSPHNIKCTPDRLIGSSKLTDVNPVYGLPIENVRKIIHYFKSNLSSPS chain 2: MEEYDYSDVKPLPIETDLQDELCRIMYTEDYKRLMGLARALISLNELSPRALQLTAEIIDVAPAFYTIWNYRFNIVRHMMSESEDTVLYLNKELDWLDEVTLNNPKNYQIWSYRQSLLKLHPSPSFKRELPILKLMIDDDSKNYHVWSYRKWCCLFFSDFQHELAYASDLIETDIYNNSAWTHRMFYWVNAKDVISKVELADELQFIMDKIQLVPQNISPWTYLRGFQELFHDRLQWDSKVVDFATTFIGDVLSLPIGSPEDLPEIESSYALEFLAYHWGADPCTRDNAVKAYSLLAIKYDPIRKNLWHHKINNLN | 2.52 µM | 0.0123 s⁻¹ | 1.71 µM |

From patent US9878045B2, “Triorthogonal reagents for dual protein conjugation” (REGENTS OF THE UNIVERSITY OF MINNESOTA, priority 2013, dated 2018)
